Stoichiometry N data for five substances are collected here from article PMC10075959.

For test [1], the target named is murine hepatitis virus (MHV) N-protein LRS peptide (comprising the predicted helix) (murine hepatitis virus). The experiment in a line: AUC; sedimentation velocity of peptides at different concentrations, 20°C, 55,000 rpm, working buffer (10.1 mM Na2PO4, 1.8 mM KH2PO4, 2.7 mM KCl, 10 mM NaCl, pH 7.40), also with 10% TFE; c(s) distributions; monomer to oligomer (trimer).

In test [2] the target is human coronavirus NL63 N-protein LRS peptide (comprising the predicted helix) (human coronavirus NL63). Described as above.
Test [3] addresses MERS N-protein LRS peptide (comprising the predicted helix) (MERS). As to the kind of experiment: AUC.
For test [4], the target named is 229E-related bat coronavirus N-protein LRS peptide (comprising the predicted helix) (229E-related bat coronavirus). The experiment in a line: AUC.
Test [5] addresses SARS-CoV N-protein LRS peptide (comprising the predicted helix) (SARS-CoV). The experiment in a line: AUC.

For orientation: stoichiometry N means a count of units in the complex or per binding partner.

On to “murine hepatitis virus (MHV) N-protein LRS peptide (comprising the predicted helix)”, for which the stoichiometry N in test [1] was 3.

Consider “human coronavirus NL63 N-protein LRS peptide (comprising the predicted helix)”, for which the stoichiometry N in test [2] was 3.

On to “MERS N-protein LRS peptide (comprising the predicted helix)”, for which the stoichiometry N in test [3] was 3.

As to “229E-related bat coronavirus N-protein LRS peptide (comprising the predicted helix)”, the stoichiometry N in test [4] was 3.

Turning to “SARS-CoV N-protein LRS peptide (comprising the predicted helix)”, the stoichiometry N in test [5] is 3.
